Experiments:
[1] = target: recombinant KIR 2DL1 protein (entire extracellular domain, produced in E. coli, refolded) (human) (UniProt P43626); experiment: SPR (Biacore), KIR 2DL1 immobilized on CM5 chip, soluble antibody as analyte
[2] = target: recombinant KIR 2DL3 protein (entire extracellular domain, produced in E. coli, refolded) (human) (UniProt P43628); experiment: SPR (Biacore), KIR 2DL3 immobilized on CM5 chip, soluble antibody as analyte
[3] = target: KIR receptors on NK cells (all inhibitory KIR2DL receptors); experiment: cell-based or functional assay

Row | Substance | Kd [1] [nM] | Kd [2] [nM] | increased expression of CD107a on NK cells [3] [%]
1 | monoclonal antibody DF200 produced by hybridoma DF200 | 10.9 | 2 | –
2 | human anti-KIR monoclonal antibody 1-7F9 | – | – | 0.5 to 13.6

— US20140023646A1
